Source: article PMC10821591

Molecular target: GAP domain of human Ral GTPase Accelerating Protein α1 (residues 1807-1988) (human) (UniProt Q6GYQ0)
Assay: ITC; MicroCal iTC200, 20 °C; cell: RalGAPα1(GAP) 15 μM; syringe: MAF1 150 μM, 19 injections of 2 μl; 20 mM Hepes pH 7.5, 150 mM NaCl, 1 mM TCEP; one-site model

GAP domain of human Ral GTPase Accelerating Protein α1 (residues 1807-1988) (human), sequence (Q6GYQ0 1807-1988): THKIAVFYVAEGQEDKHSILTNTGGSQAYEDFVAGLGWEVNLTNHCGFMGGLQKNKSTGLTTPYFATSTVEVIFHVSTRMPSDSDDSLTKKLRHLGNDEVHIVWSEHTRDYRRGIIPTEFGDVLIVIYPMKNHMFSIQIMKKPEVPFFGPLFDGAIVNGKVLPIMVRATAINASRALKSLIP

Substance	Kd	dH	stoichiometry N
MAF1b STL-RKK (MAF1b 173-443, S438R/T439K/L441K) (domain or fragment)	518 nM	–	–
T. gondii Mitochondrial Association Factor 1b, structured C-terminal domain (residues 173-443) (domain or fragment)	334 nM	-14.6 kcal/mol	1
